Measurements reported in patent US20170015742A1 (published 2017).

Key:
Human VEGF-A 165 = target: T1, Human VEGF-A 165 (human, UniProt P15692 207-395); test: receptor competition ELISA, hVEGF165 binding to coated hVEGF-R2-Fc
T1 construct: Recombinant; also called huVEGF-A165; hVEGF165
Experimental: To identify molecules that could block the binding of hVEGF₁₆₅ to the hVEGF-R2 (KDR/Flk-1) receptor, a competition ELISA was performed. […] Plates were then washed four times with wash buffer (TBS, 0.05% Tween-20) and blocked with Superblock blocking buffer (Thermo Scientific, cat#37535). […] The pre-incubated sample/hVEGF₁₆₅ complex was added to the coated plate at 50 μL in duplicate and incubated for 30 minutes at 25° C. with shaking. Following incubation, plates were washed four times with wash buffer. Streptavidin-polyHRP-40 (Fitzgerald cal#65r-s104phrp) was diluted in assay diluent (10% Superblock containing 0.05% surfactamps) and added to plates (50 μL) for 45 minutes at 25° C. with shaking. Plates were washed four times with wash buffer and developed with the addition of Enhanced K-blue TMB substrate (Neogen cat#308177). The reaction was stopped with 2N sulfuric acid (VWR, cat# BDH3500-1) and the absorbance was read at 450 nm-570 nm. A decrease in observed optical density indicates the test molecule is blocking the hVEGF₁₆₅ binding to the hVEGF-R2-Fc. Data was analyzed using Softmax Pro 4.8 software and IC₅₀ values calculated using a sigmoidal dose response (variable slope) fit in GraphPad Prism 5.
Anti-VEGF-A antibodies derived from rat hybridomas were characterized for binding, function and cross-reactivity in a panel of assays. Supernatants were tested for the ability to bind hVEGF₁₆₅ (Example 1.3) and block binding of hVEGF₁₆₅ to hVEGFR2 in a competition ELISA format (Example 1.4).

[1] = target: recombinant murine PDGF-BB (mouse, UniProt P31240 82-190); test: cell-based or functional assay
Chain of recombinant murine PDGF-BB (P31240 82-190 limits assumed): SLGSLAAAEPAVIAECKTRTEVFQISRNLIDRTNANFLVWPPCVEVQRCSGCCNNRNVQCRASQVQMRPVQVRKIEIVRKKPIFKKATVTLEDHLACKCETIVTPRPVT

recombinant rat PDGF-BB = recombinant rat PDGF-BB (rat, UniProt Q05028 74-182); test: cell-based or functional assay
Chain of recombinant rat PDGF-BB (Q05028 74-182 limits assumed): as the sequence (P31240 82-190 limits assumed) above, with I83V, I102V counted along it

Human PDGF-BB = target: T2, Human PDGF-BB (human, UniProt P01127 82-190); test: Biacore SPR (Example 1.1)
T2 construct: Recombinant human PDGF-BB, a dimer of two B chains; also called huPDGF-BB; hPDGF-BB
T2 sequence (P01127 82-190 limits assumed): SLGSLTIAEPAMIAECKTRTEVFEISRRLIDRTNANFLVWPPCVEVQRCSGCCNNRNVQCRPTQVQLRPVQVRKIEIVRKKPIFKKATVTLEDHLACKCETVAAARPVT
Experimental: Unreacted moieties on the biosensor surface were blocked with ethanolamine. For kinetic analysis, rate equations derived from the 1:1 Langmuir binding model were fitted simultaneously to multiple antigen injections (using global fit analysis) with the use of Scrubber 2 (BioLogic Software), Biacore Biaevaluation 4.0.1 software or Biacore T100 Evaluation software. Purified antibodies or DVD-Ig molecules were diluted in running buffer for capture across goat anti-human Fc reaction surfaces. Antibodies or DVD-Ig molecules to be captured as a ligand (1 μg/ml) were injected over reaction matrices at a flow rate of 10 μl/minute. During the assay, all measurements were referenced against the capture surface alone (i.e., with no captured antibody or DVD-Ig molecule). […] The equilibrium dissociation constant KD (M) of the reaction between antibodies and the target antigen was then calculated from the kinetic rate constants by the following formula: KD=Koff/Kₒₙ. Binding was recorded as a function of time and kinetic rate constants were calculated. In this assay, on-rates as fast as 10⁶M⁻¹s⁻¹ and off-rates as slow as 10⁻⁶ s⁻¹ could be measured.

T1 sequence (P15692 other isoform, or with tags, fused parts or gaps limits assumed): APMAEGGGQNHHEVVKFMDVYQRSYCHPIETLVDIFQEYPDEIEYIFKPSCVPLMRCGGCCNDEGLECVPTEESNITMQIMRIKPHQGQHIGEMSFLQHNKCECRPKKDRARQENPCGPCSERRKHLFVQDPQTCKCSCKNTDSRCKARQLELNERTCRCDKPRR

Binder | IC50 (Human VEGF-A 165) [nM] | also measured
BEW-164-C4 (antibody, IgG2b, V domains shown, Rat hybridoma antibody, isotype IgG2b/kappa; also called BEW-1B4-C4) VH: QIQLVQSGPELKKPGESVKISCKASGYSFTNYGMYWVKQAPGQGLQYMGWIDTETGKPTYTDDFKGRFVFFLETSASTAYLQINNLKNEDMATYFCARWSGDTAGIRGPWFAYWGQGTLVTVSS VL: DIRMTQSPASLSASLGETVNIECLASEDIYSDLAWYQQKPGKSPQLLIYNANDLQKGVPSRFSGSGSGTQYSLKINSLQSEDVATYFCQQYNYYPGTFGAGTKLELK | 0.18 | –
4G8.3-GS-9E8.4 anti-VEGF-A/anti-PDGF-BB DVD-Ig (PR-1564010) (bispecific antibody, human IgG1, kappa, L234A L235A) heavy: not shown light: DTVLTQSPATLSLSPGERATLSCRASESVSTHMHWYQQKPGQAPRLLIYGASNLESGVPARFSGSGSGTDFTLTISSLEPEDFAVYFCQQSWNDPFTFGQGTKLEIKRGGSGGGGSGEFVLTQSPGTLSLSPGERATLSCERSSGDIGDSYVSWYQQKPGQAPRLVIYADDQRPSGIPDRFSGSGSGTDFTLTISRLEPEDFAVYYCQSYDINIDIVFGGGTKVEIKGTVAAPSVFIFPPSDEQLKSGTASVVCLLNNFYPREAKVQWKVDNALQSGNSQESVTEQDSKDSTYSLSSTLTLSKADYEKHKVYACEVTHQGLSSPVTKSFNRGEC | – | Potency IC50 (nM) mPDGF-BB (NIH-3T3 proliferation) [1]: 0.44 nM; Potency IC50 (nM) ratPDGF-BB (NIH-3T3 proliferation) (recombinant rat PDGF-BB): 1.36 nM
4G8.3-SL-9E8.4 anti-VEGF-A/anti-PDGF-BB DVD-Ig (PR-1564012) (bispecific antibody, human IgG1, kappa, L234A L235A) heavy: not shown light: DTVLTQSPATLSLSPGERATLSCRASESVSTHMHWYQQKPGQAPRLLIYGASNLESGVPARFSGSGSGTDFTLTISSLEPEDFAVYFCQQSWNDPFTFGQGTKLEIKRTVAAPSVFIFPPEFVLTQSPGTLSLSPGERATLSCERSSGDIGDSYVSWYQQKPGQAPRLVIYADDQRPSGIPDRFSGSGSGTDFTLTISRLEPEDFAVYYCQSYDINIDIVFGGGTKVEIKGTVAAPSVFIFPPSDEQLKSGTASVVCLLNNFYPREAKVQWKVDNALQSGNSQESVTEQDSKDSTYSLSSTLTLSKADYEKHKVYACEVTHQGLSSPVTKSFNRGEC | – | Potency IC50 (nM) mPDGF-BB (NIH-3T3 proliferation) [1]: 0.29 nM; Potency IC50 (nM) ratPDGF-BB (NIH-3T3 proliferation) (recombinant rat PDGF-BB): 0.65 nM
4G8.3-SL-9E8.4E anti-VEGF-A/anti-PDGF-BB DVD-Ig (PR-1575834) (bispecific antibody, human IgG1, kappa, L234A L235A) heavy: EVQLVQSGSELKKPGASVKVSCKASGYTFTNYGMYWVRQAPGQGLEWMGWINTETGKPTYADDFKGRFVFSLDTSVSTAYLQISSLKAEDTAVYYCARTNYYYRSYIFYFDYWGQGTMVTVSSASTKGPEVTLRESGPALVKPTQTLTLTCTFSGFSLSTYGMGVGWIRQPPGKALEWLANIWWDDDKYYNPSLKNRLTISKDTSKNQVVLTMTNMDPVDTATYYCARIESIGTTYSFDYWGQGTMVTVSSASTKGPSVFPLAPSSKSTSGGTAALGCLVKDYFPEPVTVSWNSGALTSGVHTFPAVLQSSGLYSLSSVVTVPSSSLGTQTYICNVNHKPSNTKVDKKVEPKSCDKTHTCPPCPAPEAAGGPSVFLFPPKPKDTLMISRTPEVTCVVVDVSHEDPEVKFNWYVDGVEVHNAKTKPREEQYNSTYRVVSVLTVLHQDWLNGKEYKCKVSNKALPAPIEKTISKAKGQPREPQVYTLPPSREEMTKNQVSLTCLVKGFYPSDIAVEWESNGQPENNYKTTPPVLDSDGSFFLYSKLTVDKSRWQQGNVFSCSVMHEALHNAYTQKSLSLSPGK light: DTVLTQSPATLSLSPGERATLSCRASESVSTHMHWYQQKPGQAPRLLIYGASNLESGVPARFSGSGSGTDFTLTISSLEPEDFAVYFCQQSWNDPFTFGQGTKLEIKRTVAAPSVFIFPPEFVLTQSPGTLSLSPGERATLSCERSSGDIGESYVSWYQQKPGQAPRLVIYADDQRPSGIPDRFSGSGSGTDFTLTISRLEPEDFAVYYCQSYDINIDIVFGGGTKVEIKRTVAAPSVFIFPPSDEQLKSGTASVVCLLNNFYPREAKVQWKVDNALQSGNSQESVTEQDSKDSTYSLSSTLTLSKADYEKHKVYACEVTHQGLSSPVTKSFNRGEC | – | Potency IC50 (nM) mPDGF-BB (NIH-3T3 proliferation) [1]: 0.772 nM
BDI-5G2-F9 (antibody, V domains shown) VH: QVTLKESGPGILQPSQTLSLTCTFSGFSLSTFGMGVGWIRQPSGKGLEWLANIWWDDDKYYNPSLKNRLTISKDTSNSQAFLEITNVDTADTATYYCARISTGISSYYVMDAWGQGASVTVSS VL: QFTLTQPKSVSGSLRSTITIPCERSSGDIGDTYVSWYQQHLGRPPINVIYGNDQRPSEVSDRFSGSIDSSSNSASLTITNLQMDDEADYFCQSYDSDIDIVFGGGTKLTVL | – | Kd (Human PDGF-BB): ≤ 0.0001 nM; kon (Human PDGF-BB): ≥ 1e+07 M⁻¹ s⁻¹
BDI-5H1-F6 (antibody, V domains shown) VH: QVTLKESGPGILQPSQTLSLTCTFSGFSLSTFGMGVGWIRQPSGKGLEWLANIWWDDDKYYNPSLKNRLTISKDTSNSQAFLEITNVDTADTATYYCARISTGISSYYVMDAWGQGASVTVSS VL: QFTLTQPKSVSGSLRSTITIPCERSSGDIGDTYVSWYQQHLGRPPINVIYGNDQRPSEVSDRFSGSIDSSSNSASLTITNLQMDDEADYFCQSYDSDIDIVFGGGTKLTVL | – | Kd (Human PDGF-BB): ≤ 0.0001 nM; kon (Human PDGF-BB): ≥ 1e+07 M⁻¹ s⁻¹

More lines, main results first:

IC50 (Human VEGF-A 165) [nM] | Binder | also measured
0.42 | BEW-10H2-B9 (antibody, IgG2b, V domains shown, Rat hybridoma antibody, isotype IgG2b/kappa) VH: QIQLVQSGPELKKPGESVKISCKASGYSFTNFGLYWVKQAPGQGLQYMGWIDTETGKPTYADDFRGRFVFFLETSASTAYLQINNLKNEDMATYFCARVYGYPSWYFDFWGPGTMVTVSS VL: DIQMTQSPASLSTSLEEIVTITCQASQDIDNYLSWYQQKPGKSPQLLIHSATSLADGVPSRFSGSRSGTQFSLKIHRLQVEDTGIYYCLQHFFPPWTFGGGTKLELK | –
0.274 | BEW-9E10-E7 (antibody, IgG2a, V domains shown, Rat hybridoma antibody, isotype IgG2a/kappa) VH: QIQLLQSGPELKKPGESVKISCKASGYTFTNYGMYWVKQAPGQGLQYMGWIDTETGRPTYADDFKGRFVFFLETSASTAYLQINNLKNEDMATYFCARWSGDTTGIRGPWFAYWGQGTLVTVSS VL: DIRMTQSPASLSASLGETVNIECLASEDIYSDLAWYQQKPGRSPQLLIYNANGLQNGVPSRFGGSGSGTQYSLKINSLQSEDVATYFCQQYNYFPGTFGAGTKLELK | –
0.197 | BEW-6C2-C8 (antibody, IgG2b, V domains shown, Rat hybridoma antibody, isotype IgG2b/kappa) VH: EVQLVESGGGLVQPGSSLKLSCAASGFTFSYYGMHWIRQAPKKGLEWMALIYYDSSKMYYADSVKGRFTISRDNSKNTLYLEMNSLRSEDTAMYYCAAGGTAPVYWGQGVMVTVSS VL: NIQLTQSPSLLSASVGDRVTLSCKGSQNIANYLAWYQQKLGEAPKLLIYNTDSLQTGIPSRFSGSGSGTDYTLTISSLQPEDVATYFCYQSNNGYTFGAGTKLELR | –
0.62 | BEW-1E3-D6 (antibody, IgG2b, V domains shown, Rat hybridoma antibody, isotype IgG2b/kappa) VH: QIQLVQSGPELKKPGESVKISCKASGYPFTNSGMYWVKQAPGQGLQYMGWINTEAGKPTYADDFKGRFVFFLETSASTAYLQINNLKNEDMATYFCARWGYISDNSYGWFDYWGQGTLVTVSS VL: DTVLTQSPALAVSPGERVSISCRASEGVYSYMHWYQQNPGQQPKLLIYKASNLASGVPARFSGSGSGTDFTLTIDPVEADDTATYFCHQNWNDPLTFGSGTKLEIK | –
0.124 | BEW-9E3-B9 (antibody, IgG2a, V domains shown, Rat hybridoma antibody, isotype IgG2a/kappa) VH: QIQLVQSGPELKKPGESVKISCKASGYTFTNYGMYWVKQAPGQGLQYMGWINTETGKPTYADDFKGRFVFFLETSASTAFLQINNLKNEDMATYFCARPSDYYDGFWFPYWGQGALVTVSS VL: DTILTQSPALAVSPGERISISCRASEGVNSYMHWYQQNPGQQPKLLIYKASNLASGVPARFSGSGSGTDFTLTIDPVEADDTATYFCQQSWNDPLTFGSGTKLEIK | –
0.156 | BEW-5C3-E7 (antibody, IgG2b, V domains shown, Rat hybridoma antibody, isotype IgG2b/kappa) VH: QIQLVQSGPELKKPGESVKISCKASGYTFTNYGVYWVKQAPGQGLQYMGWINTETGKPTYADDFKGRFVFFLETSTNTAYLQINNLKNEDMATFFCARARQLDWFVYWGQGTLVTVSS VL: DTVLTQSPALTVSPGERVSISCRARESLTTSLCWFQQKPGQQPKLLIYGASKLESGVPARFSGSGSGTDFTLTIDPVEADDTATYFCQQSWYDPPTFGGGTKLELK | –
0.342 | BEW-8E6-E4 (antibody, IgG2a, V domains shown, Rat hybridoma antibody, isotype IgG2a/kappa) VH: QIQLVQSGPELKKPGESVKISCKASGYTFTDYAMHWVKQAPGKVLKWMGWINTFTGKPTYIDDFKGRFVFSLEASASTANLQISDLKNEDTATYFCARGNYYSGYWYFDFWGPGTMVTMSS VL: DIQMTQSPASLSASLGETISIECRASEDISSNLAWYQQKSGKSPQLLIFAANRLQDGVPSRFSGSGSGTQFSLKISGMQPEDEGDYFCLQGSKFYTFGAGTKLELK | –
0.249 | BEW-9A8-E2 (antibody, IgG2a, V domains shown, Rat hybridoma antibody, isotype IgG2a/kappa) VH: QIQLVQSGPELKKPGESVKISCKASGYTFTNYGMYWVKQAPGQGLQYMGWINTETGKPIYADDFKGRFVFFLETSASTAYLQINNLKNEDMATFFCARVDYDGSFWFAYWGQGTLVTVSS VL: DTVLTQSPALAVSPGERVSISCRASESVSTVIHWYQQKPGQQPKLLIHGASNLESGVPARFSGSGSGTDFTLTIDPVEADDTATYFCQQHWNDPPTFGAGTKLEMK | –
